As a reminder, the Kd is the equilibrium constant for the complex coming apart.

For six molecules, Kd results are on record in publication PMC6874530 (2019).

To fix the notation:
B1: LXRα LBD (protein)
chain: EQLGMIEKLVAAQQQCNRRSFSDRLRVTPWPMAPDPHSREARQQRFAHFTELAIVSVQEIVDFAKQLPGFLQLSREDQIALLKTSAIEVMLLETSRRYNPGSESITFLKDFSYNREDFAKAGLQVEFINPIFEFSRAMNELQLNDAEFALLIAISIFSADRPNVQDQLQVERLQHTYVEALHAYVSIHHPHDRLMFPRMLMKLVSLRTLSSVHSEQVFALRLQDKKLPPLLSEIWDVHE
modifications: lipogenic agonists (average)
B2: LXRα LBD (protein)
chain: B1 chain
modifications: AZ6
B3: LXRβ LBD (protein)
chain: AQELMIQQLVAAQLQCNKRSFSDQPKVTPWPLGADPQSRDARQQRFAHFTELAIISVQEIVDFAKQVPGFLQLGREDQIALLKASTIEIMLLETARRYNHETECITFLKDFTYSKDDFHRAGLQVEFINPIFEFSRAMRRLGLDDAEYALLIAINIFSADRPNVQEPGRVEALQQPYVEALLSYTRIKRPQDQLRFPRMLMKLVSLRTLSSVHSEQVFALRLQDKKLPPLLSEIWDVHE
modifications: BMS-852927
B4: LXRβ LBD (protein)
chain: B3 chain
modifications: 24,25EC
B5: LXRα LBD (protein)
chain: B1 chain
B6: LXRβ LBD (protein)
chain: B3 chain

Sequence of SRC1 peptide (Q15788 2-1441): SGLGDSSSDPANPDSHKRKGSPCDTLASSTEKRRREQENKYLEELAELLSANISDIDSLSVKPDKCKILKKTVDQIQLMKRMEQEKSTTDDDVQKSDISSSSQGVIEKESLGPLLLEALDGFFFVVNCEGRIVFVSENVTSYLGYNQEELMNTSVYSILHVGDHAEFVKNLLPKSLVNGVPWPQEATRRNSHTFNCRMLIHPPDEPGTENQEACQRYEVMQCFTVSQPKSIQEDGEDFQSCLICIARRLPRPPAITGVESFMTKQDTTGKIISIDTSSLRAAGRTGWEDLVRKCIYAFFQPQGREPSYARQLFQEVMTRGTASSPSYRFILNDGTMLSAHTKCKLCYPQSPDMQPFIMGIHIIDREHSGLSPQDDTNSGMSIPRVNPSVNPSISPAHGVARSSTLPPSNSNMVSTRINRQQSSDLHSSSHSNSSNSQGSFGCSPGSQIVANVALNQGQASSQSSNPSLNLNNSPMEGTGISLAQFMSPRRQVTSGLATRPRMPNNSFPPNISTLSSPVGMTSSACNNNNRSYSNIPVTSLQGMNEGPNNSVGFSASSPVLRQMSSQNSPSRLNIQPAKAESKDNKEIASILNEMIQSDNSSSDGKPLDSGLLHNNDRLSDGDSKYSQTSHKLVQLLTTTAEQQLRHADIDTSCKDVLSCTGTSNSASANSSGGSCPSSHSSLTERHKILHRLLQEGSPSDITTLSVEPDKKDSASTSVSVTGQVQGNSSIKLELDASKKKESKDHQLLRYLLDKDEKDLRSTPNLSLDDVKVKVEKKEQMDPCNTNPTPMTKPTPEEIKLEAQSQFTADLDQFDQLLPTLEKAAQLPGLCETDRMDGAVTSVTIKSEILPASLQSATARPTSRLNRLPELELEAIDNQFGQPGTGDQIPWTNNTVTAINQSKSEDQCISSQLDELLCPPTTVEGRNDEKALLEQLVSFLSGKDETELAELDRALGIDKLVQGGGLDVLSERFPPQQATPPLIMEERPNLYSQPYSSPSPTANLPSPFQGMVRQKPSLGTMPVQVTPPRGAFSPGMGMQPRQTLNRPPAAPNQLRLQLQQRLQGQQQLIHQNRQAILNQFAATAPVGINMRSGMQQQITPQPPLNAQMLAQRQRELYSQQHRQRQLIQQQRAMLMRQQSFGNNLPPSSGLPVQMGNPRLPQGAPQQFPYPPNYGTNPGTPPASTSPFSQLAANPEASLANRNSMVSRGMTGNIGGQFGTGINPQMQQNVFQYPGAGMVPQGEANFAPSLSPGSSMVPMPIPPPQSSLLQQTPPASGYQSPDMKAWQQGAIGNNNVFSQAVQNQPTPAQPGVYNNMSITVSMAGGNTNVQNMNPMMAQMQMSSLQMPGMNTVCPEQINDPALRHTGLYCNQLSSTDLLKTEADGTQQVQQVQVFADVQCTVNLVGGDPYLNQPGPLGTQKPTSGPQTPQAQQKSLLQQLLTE
Sequence of NCOR1 peptide (O75376 whole entry): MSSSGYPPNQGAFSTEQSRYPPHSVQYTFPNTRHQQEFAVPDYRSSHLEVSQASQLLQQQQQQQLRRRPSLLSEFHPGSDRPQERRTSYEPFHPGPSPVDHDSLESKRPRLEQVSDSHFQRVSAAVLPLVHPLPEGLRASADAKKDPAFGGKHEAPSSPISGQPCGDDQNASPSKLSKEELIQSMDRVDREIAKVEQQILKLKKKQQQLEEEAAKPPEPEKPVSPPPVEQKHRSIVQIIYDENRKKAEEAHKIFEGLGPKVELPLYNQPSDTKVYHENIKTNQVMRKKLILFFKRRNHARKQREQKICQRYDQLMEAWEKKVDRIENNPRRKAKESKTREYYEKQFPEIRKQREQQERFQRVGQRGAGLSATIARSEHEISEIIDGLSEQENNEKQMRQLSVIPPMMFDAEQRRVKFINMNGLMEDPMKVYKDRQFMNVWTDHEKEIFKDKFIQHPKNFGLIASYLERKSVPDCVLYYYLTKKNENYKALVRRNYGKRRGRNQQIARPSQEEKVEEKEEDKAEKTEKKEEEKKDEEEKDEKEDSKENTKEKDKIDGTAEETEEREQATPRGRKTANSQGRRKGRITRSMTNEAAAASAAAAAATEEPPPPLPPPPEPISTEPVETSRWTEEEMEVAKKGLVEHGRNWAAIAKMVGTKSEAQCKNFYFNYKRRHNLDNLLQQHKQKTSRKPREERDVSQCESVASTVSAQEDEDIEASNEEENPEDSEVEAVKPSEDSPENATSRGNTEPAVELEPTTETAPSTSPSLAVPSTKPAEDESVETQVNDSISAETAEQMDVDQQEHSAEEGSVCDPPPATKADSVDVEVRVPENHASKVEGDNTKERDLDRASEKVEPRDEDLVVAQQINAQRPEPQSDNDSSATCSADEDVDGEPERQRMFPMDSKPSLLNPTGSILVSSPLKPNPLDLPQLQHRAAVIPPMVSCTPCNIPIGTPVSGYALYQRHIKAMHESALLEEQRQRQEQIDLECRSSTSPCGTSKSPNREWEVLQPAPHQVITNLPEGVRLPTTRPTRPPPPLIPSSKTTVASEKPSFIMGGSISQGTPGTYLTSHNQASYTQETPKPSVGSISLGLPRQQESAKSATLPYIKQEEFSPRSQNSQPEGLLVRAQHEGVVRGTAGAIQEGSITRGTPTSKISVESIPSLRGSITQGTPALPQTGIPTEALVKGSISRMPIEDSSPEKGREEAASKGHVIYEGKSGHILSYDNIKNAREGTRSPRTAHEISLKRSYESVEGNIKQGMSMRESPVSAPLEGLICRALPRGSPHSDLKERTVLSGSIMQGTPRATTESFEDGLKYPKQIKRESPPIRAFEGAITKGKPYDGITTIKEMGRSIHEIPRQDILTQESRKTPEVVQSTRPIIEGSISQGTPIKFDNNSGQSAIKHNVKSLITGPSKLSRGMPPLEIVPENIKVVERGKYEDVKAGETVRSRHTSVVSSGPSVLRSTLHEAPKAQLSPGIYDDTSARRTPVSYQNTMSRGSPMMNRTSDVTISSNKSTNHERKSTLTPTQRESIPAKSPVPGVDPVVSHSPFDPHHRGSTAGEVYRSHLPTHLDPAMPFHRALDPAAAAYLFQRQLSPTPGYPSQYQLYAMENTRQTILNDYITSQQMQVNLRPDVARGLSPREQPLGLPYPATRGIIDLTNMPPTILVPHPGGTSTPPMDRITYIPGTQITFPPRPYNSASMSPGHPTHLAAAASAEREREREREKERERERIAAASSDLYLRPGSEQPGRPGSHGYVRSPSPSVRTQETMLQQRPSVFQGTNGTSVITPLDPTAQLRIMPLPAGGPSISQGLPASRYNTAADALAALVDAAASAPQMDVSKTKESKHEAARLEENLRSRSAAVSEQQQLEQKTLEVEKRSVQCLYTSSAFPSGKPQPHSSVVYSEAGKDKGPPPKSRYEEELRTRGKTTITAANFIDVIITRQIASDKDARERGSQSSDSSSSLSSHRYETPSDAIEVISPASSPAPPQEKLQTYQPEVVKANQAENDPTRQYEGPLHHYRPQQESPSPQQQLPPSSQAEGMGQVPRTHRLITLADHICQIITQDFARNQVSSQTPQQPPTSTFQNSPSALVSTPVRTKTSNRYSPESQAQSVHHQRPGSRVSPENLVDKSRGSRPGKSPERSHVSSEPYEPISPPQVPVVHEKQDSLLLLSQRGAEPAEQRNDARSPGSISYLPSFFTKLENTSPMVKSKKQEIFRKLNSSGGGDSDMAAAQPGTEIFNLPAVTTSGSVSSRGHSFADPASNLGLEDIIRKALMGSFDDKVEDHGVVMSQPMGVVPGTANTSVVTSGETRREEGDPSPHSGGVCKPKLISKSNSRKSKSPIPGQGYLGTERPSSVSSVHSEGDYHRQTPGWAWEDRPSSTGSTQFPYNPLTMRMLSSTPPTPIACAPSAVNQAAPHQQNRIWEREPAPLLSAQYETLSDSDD

The first assay concerns the target SRC1 peptide (Homo sapiens, UniProt Q15788). The assay is described as follows: SPR. For orientation: SPR reads the build-up and loss of mass on a sensor chip optically.
B1: binding was characterised by a dissociation constant (Kd) of 1200 nM.

In the case of B2, the Kd was 1500 nM.

Take B3: the Kd was determined as 19800 nM. Against the preceding molecule, the Kd is about 13-fold higher.

As to B4, the Kd worked out at 2500 nM.

A further assay addresses NCOR1 peptide (Homo sapiens, UniProt O75376). The assay can be described thus: SPR.
Turning to B5, binding was characterised by a dissociation constant (Kd) of 800 nM.

In turn, B6 displayed a Kd of 500 nM. This Kd is about 1.6-fold lower than that of the molecule before.
